A word on the Kd: it is a measure of binding affinity in units of concentration.

The target of data set [1] is T1, GST-CsdA (Pestalotiopsis fici CGMCC3.15140, UniProt W3WSJ8 1-634).
T1 sequence: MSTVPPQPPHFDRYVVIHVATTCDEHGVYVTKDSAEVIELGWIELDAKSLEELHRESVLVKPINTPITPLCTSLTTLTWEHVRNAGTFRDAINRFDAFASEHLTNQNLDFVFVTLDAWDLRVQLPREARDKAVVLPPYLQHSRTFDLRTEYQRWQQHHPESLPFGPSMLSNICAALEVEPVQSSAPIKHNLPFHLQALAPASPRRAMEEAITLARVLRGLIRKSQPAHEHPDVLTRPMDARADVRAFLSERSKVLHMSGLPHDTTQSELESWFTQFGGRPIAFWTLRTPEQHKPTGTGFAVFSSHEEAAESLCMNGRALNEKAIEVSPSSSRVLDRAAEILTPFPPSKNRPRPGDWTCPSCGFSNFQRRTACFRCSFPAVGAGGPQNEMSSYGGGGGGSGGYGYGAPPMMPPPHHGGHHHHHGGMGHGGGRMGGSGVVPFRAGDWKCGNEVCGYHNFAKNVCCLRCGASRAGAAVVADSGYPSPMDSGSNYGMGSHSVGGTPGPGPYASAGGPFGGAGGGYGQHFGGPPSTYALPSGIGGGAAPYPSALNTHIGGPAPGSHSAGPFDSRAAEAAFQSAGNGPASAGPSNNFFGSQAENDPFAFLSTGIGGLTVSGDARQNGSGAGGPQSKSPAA
Nature of the data set: ITC; EMSA: Beyotime EMSA kit buffer, 20 min at 25 C, 6% polyacrylamide gel; ITC: 200 uM RNA into 50 uM CsdA, 25 C, buffer not stated (protein elution buffer 50 mM Tris, 150 mM NaCl, 10 mM GSH, pH 8.0). The note with it: protein: recombinant; tags: GST (N-terminal, pGEX-4T; pYSZL6). A general note: Isothermal titration calorimetry measures the heat released or taken up as one component is titrated into another.

The target of data set [2] is T2, RsdA-His (PFICI_10532), recombinant (Pestalotiopsis fici, UniProt W3WX91 1-730).
T2 construct: RsdA, regulator of secondary metabolism and development, Pestalotiopsis fici, locus PFICI_10532; open reading frame amplified from P. fici cDNA; RsdA-His printed as 80.4 kDa; Printed as RsdA-His; vector pET28a (His6-tag); also called PfRsdA; RsdA-His protein; source: E. coli BL21 (plasmid pYZS42, pET28a), purified (Ni-NTA resin)
T2 sequence (looked up): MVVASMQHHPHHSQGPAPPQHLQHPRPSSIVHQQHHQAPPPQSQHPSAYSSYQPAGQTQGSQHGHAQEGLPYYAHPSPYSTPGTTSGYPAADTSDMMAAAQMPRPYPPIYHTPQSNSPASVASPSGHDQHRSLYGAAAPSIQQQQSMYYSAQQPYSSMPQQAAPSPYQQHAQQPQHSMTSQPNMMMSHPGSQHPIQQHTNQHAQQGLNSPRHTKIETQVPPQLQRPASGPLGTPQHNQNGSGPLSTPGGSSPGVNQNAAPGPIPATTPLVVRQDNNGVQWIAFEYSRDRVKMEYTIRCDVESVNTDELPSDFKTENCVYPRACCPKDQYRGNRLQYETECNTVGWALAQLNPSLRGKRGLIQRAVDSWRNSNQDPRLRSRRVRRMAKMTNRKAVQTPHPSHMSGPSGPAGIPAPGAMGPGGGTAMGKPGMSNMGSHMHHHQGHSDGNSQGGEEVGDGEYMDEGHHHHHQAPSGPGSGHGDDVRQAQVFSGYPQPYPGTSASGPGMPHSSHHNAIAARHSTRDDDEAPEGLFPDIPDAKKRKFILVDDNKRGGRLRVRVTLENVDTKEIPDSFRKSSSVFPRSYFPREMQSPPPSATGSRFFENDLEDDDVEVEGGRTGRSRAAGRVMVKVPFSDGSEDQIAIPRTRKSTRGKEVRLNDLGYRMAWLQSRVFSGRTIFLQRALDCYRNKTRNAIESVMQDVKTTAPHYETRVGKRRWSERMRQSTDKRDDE
In words: pull-down; His pull-down: RsdA-His (or RsdA^ΔC-terminal-His) held on Ni-NTA resin, purified GST-CsdA or its deletion forms added, overnight at 4 °C; binding buffer 50 mM Tris, 250 mM NaCl, 0.2% glycerol, 5 mM DTT, 0.6% Triton X-100, 1 mM PMSF, pH 7.5; wash with 1% Triton X-100; western blot with anti-His and anti-GST. The note with it: both partners purified. (A western blot detects proteins with antibodies after separation by electrophoresis.)

The target in data set [3] is T1, GST-CsdA. In words: EMSA; EMSA: Beyotime EMSA kit buffer, 20 min at 25 C, 6% polyacrylamide gel; ITC: 200 uM RNA into 50 uM CsdA, 25 C, buffer not stated (protein elution buffer 50 mM Tris, 150 mM NaCl, 10 mM GSH, pH 8.0). The following applies: protein: recombinant; tags: GST (N-terminal, pGEX-4T; pYSZL6); label: biotin. A general note: Mobility shift assays separate free from complexed probe on a gel.

For the molecule GUCGGUAU (ssRNA) [1xGUCGGUAU RNA (ITC)], the Kd with GST-CsdA [1] amounted to 19.7 ± 3.67 µM.

B1: GST-CsdA (PFICI_10709), recombinant (natural protein, Pestalotiopsis fici, UniProt W3WSJ8 1-634, looked up)
chain: MSTVPPQPPHFDRYVVIHVATTCDEHGVYVTKDSAEVIELGWIELDAKSLEELHRESVLVKPINTPITPLCTSLTTLTWEHVRNAGTFRDAINRFDAFASEHLTNQNLDFVFVTLDAWDLRVQLPREARDKAVVLPPYLQHSRTFDLRTEYQRWQQHHPESLPFGPSMLSNICAALEVEPVQSSAPIKHNLPFHLQALAPASPRRAMEEAITLARVLRGLIRKSQPAHEHPDVLTRPMDARADVRAFLSERSKVLHMSGLPHDTTQSELESWFTQFGGRPIAFWTLRTPEQHKPTGTGFAVFSSHEEAAESLCMNGRALNEKAIEVSPSSSRVLDRAAEILTPFPPSKNRPRPGDWTCPSCGFSNFQRRTACFRCSFPAVGAGGPQNEMSSYGGGGGGSGGYGYGAPPMMPPPHHGGHHHHHGGMGHGGGRMGGSGVVPFRAGDWKCGNEVCGYHNFAKNVCCLRCGASRAGAAVVADSGYPSPMDSGSNYGMGSHSVGGTPGPGPYASAGGPFGGAGGGYGQHFGGPPSTYALPSGIGGGAAPYPSALNTHIGGPAPGSHSAGPFDSRAAEAAFQSAGNGPASAGPSNNFFGSQAENDPFAFLSTGIGGLTVSGDARQNGSGAGGPQSKSPAA
notes: open reading frame amplified from P. fici cDNA; CsdA said to contain 730 amino acids; GST-CsdA printed as 93.6 kDa; Printed as GST-CsdA; vector pGEX-4T (GST-tag); also called PfCsdA; GST-CsdA protein; source: E. coli BL21 (plasmid pYSZL6, pGEX-4T), purified (GST-tag resin)
Turning to B1, the binding result in data set [2] is recorded as “binds”. As for GUCGGUAUCGUCGGUAUGGUCGGUAUUGUCGGUAU (ssRNA) [4xGUCGGUAU RNA (ITC)], in the data set with GST-CsdA [1], the Kd came to 10.5 ± 5.12 µM. For the molecule CCAGGGAGGUGAAGAAGUCGGUAUGUUUCACCAGAUGUGAU (ssRNA) [rsdA intron 2 5' splice site RNA (EMSA probe)], the binding result with GST-CsdA [3] is recorded as “binds”.
